The chains are these.
T1: yeast Elp4 residues 66-426 (yElp4_(66-426)) (S. cerevisiae, UniProt Q02884 66-426)
T1 construct: source: purified complex
T1 sequence (looked up): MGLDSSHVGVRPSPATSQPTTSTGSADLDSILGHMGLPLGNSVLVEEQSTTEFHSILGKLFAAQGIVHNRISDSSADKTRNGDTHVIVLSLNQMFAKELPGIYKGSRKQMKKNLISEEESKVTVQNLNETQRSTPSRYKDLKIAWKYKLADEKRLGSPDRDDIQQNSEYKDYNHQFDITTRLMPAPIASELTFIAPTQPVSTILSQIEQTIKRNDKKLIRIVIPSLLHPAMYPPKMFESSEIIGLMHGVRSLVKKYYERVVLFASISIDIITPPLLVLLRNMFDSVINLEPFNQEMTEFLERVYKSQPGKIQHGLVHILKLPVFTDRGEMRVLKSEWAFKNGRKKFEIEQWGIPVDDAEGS

B1: yeast Elp5 residues 1-270 (yElp5_(1-270)) (domain or fragment, S. cerevisiae, UniProt P38874 1-270, looked up)
chain: MASSSHNPVILLKRILSLTESSPFILCLDSIAQTSYKLIQEFVHQSKSKGNEYPIVYISFETVNKPSYCTQFIDATQMDFVHLVKQIISYLPAATATQAKKHMVIIDSLNYISTEYITRFLSEIASPHCTMVATYHKDIKDENRTVIPDWNNNYPDKLTLLQFMATTIVDIDVVLTGTLDTEEVSELLNEFRIPRGLNNDIFQLRLVNKRKSGRSLEYDFIVNSNTHEYELLSTTKQEEESSSNGLETPEMLQGLTTFNLGTSNKQKLAK
notes: Elp5, yeast, residues 1-270; source: purified complex
B2: yeast Elongator complex subunit 6 (yElp6) (natural protein, S. cerevisiae)
chain: MGSVQRQDLVLFSDQSVLPAHFFQDSNSHNLFFITHQSCTQPLWMINALVETHVLGSPSSLNESSSSMLPSSTRSHAVLASFIHEQNYFTNSLNKLKIPSNNYNVLDFLSDFIVNNIHNKPRDKILSDVLAKFSAAIQNNPTDTIVIIEQPELLLSLVSGLTCSELNNKFITPLLRQCKVLIIVSNSDIFNIDEYDASVHSSNLQNFYKSSFIKSMINLNLNPLKTGFAKDVTGSLHVCRGGAPIATSNTSLHVVENEYLYLNEKESTKLFYR
notes: Elp6, S. cerevisiae, Q04868; printed without limits (yElp456); source: purified Elp456 complex from yeast subunits

The target in assay [1] is T1, yeast Elp4 residues 66-426 …. The assay is described as follows: co-purification (NiNTA affinity, then SEC); subunits co-expressed in E. coli; truncated complexes purified as complexes and then used for Thermofluor. Conditions: both partners purified.
Assay [2] addresses B2. Described as above. Conditions: both partners purified.

As for B1, the binding result in assay [1] and in assay [2] was “binds” in each case.

As to B2, the binding result in assay [1] is on record as “binds”.

For the origin of these results see publication PMC6086839, “Elongator mutation in mice induces neurodegeneration and ataxia-like behavior” (Nature Communications, 2018).
